Assay results taken from patent US11261216B2, “Engineered hepatitis B core polypeptide” (priority 2018, dated 2022).

Experiment: VLP assembly induced by NaCl, quantified by size-exclusion chromatography
Type: physicochemical
Protocol: Improved VLP purification method. HepBc proteins were expressed using standard cell-free protein synthesis reactions as described above. The improved purification strategy first used Sephadex G25 columns to exchange the samples into a 50 mM Tris, 25 mM Imidazole, 0.1% Tween-20, pH 7.4 buffer solution. Insolubles were removed using centrifugation at 10 k×g for 15 min before loading the soluble fraction onto the Ni-NTA column. After loading, the Ni-NTA column was washed with 4 column volumes (CV) of 50 mM Tris, 25 mM Imidazole, 0.1% Tween-20, pH 7.4 and then eluted with 50 mM Tris, 250 mM Imidazole, 0.1% Tween-20, pH 7.4 (5CV total). […] Assembled VLPs were quantified and purified by applying 200 μL of the samples to 2.2 mL Sepharose 6 Fast Flow size-exclusion chromatographic resin, eluting 24×150 μL fractions. Protein concentration in each fraction was determined by measuring the radioactivity using liquid scintillation counting. […]
VLP purification method. […] Assembled VLPs were quantified and purified by applying 200 μL of the samples to 2.2 mL Sepharose 6 Fast Flow size-exclusion column, applying the assembly buffer, and collecting 24×150 […]. Protein concentration in each fraction was determined by measuring the radioactivity using liquid scintillation counting. […]

| Molecule | NaCl concentration (ionic strength) required for VLP assembly [M] |
| --- | --- |
| wild-type: Wild-type truncated Hepatitis B core protein HBc149, SEQ ID NO: 1 | 0.5 |
| HP spike transplant: HepBc with HP series of amino acid changes in the spike region; HBc(HP) is SEQ ID NO: 3 (protein) MDIDPYKEFGATVELLSFLPSDFFPSVRCLLDTAAALYRDALESPEHCSPHHTALRQAVSCWREVTDFGDWVGNNMQDQAARDLVVNYVNANIGLKIRQLLWFHISCLTFGRETVLEYLVSFGVWICTPPAYRPPNAPILSTLPETTVV | 1.5 |
